Assay results reported in patent publication US5187153A, “Methods of treatment using Alzheimer's amyloid polypeptide derivatives” (Scios Nova Inc., priority 1990, dated 1993).
Read-outs that look alike come from different tables or passages of the source.

Tests used:
[1] = biological target: T1, trypsin (Sus scrofa, UniProt P00761); test: Protease inhibition, fluorogenic MCA substrate: trypsin; format: biochemical, porcine
T1 construct: trypsin (17,000 units/mg from porcine pancreas); from tissue; host or cells: porcine pancreas
Excerpt: (§1) The effects of A4 inhibitor on serine- and thiol- proteases were examined as follows: trypsin (17,000 units/mg from porcine pancreas), factor Xa and β-thrombin (gifts from Dr. Iwanagu, Kyushu University, Fukuoka, Japan), tryptase and chymase (both from rat peritoneal mast cells purified as described in Kido et al., Arch Biochem Biophys 239:436-443 (1985)), α-chymotrypsin (0.75 U/mg from bovine pancreas), elastase (33 U/mg from porcine pancreas), papain, cathepsin B (from rat liver purified as described in Towatari et al., Eur J Biochem 102:279-289 (1979)), plasmin (0.16 U/mg from human plasma), urokinase (0.75 U/mg from human kidney cells, Sigma Chemical Co.), tissue kallikrein (50 U/mg from porcine pancreas) or plasma kallikrein (9.4 U/mg from human plasma) was preincubated with various concentrations of the inhibitor in a total volume of 1.5 ml of buffer containing bovine serum albumin (0.1 mg/ml). The buffers used were as follows: 0.1 M Tris-HCl, pH 7.5, for trypsin, plasmin and urokinase; 0.1 M Tris-HCl, pH 8.0, for chymase and α-chymotrypsin; 0.1 M Tris-HCl, pH 8.0, containing 10 mM CaCl2 for factor Xa and α-thrombin; 0.1 M Tris-HCl, pH 8.5, for tryptase M; 0.1 M Tris-HCl, pH 7.8, for plasma and tissue kallikrein; 0.1 M Tris-HCl, pH 7.0 for elastase; 50 mM acetate, pH 6.0, containing 1 mM EDTA and 4 mM cysteine for papain and cathepsin B. After preincubation for 5 min at 25° C., 7.5 μl of 20 mM concentrations of the fluorogenic substrate shown in Table I were added and the residual activity of each protease was measured in a quartz cuvette maintained thermostatically at 25° C. The amount of 7-amino-4-methylcoumarin liberated from the substrates was determined fluorometrically with excitation and emission wavelengths of 380 nm and 460 nm, respectively, in a Hitachi fluorescence spectrophotometer, 650-10MS model, as reported in Kido et al. (1988), supra. Protein concentration was determined with bicinchoninic acid protein assay reagent as described by Smith et al., Anal. Biochem. 150:76-85 (1985). […]

[2] = system: Tryptase M; test: Protease inhibition, fluorogenic MCA substrate: tryptase M; format: biochemical, rat
Excerpt: as §1, with “The buffers used were as follows: 0.1 M Tris-HCl, pH 7.5, for trypsin, plasmin and urokinase; 0.1 M Tris-HCl, pH 8.0, for chymase and α-chymotrypsin; 0.1 M Tris-HCl, pH 8.0, containing 10 mM CaCl2 for factor Xa and α-thrombin; 0.1 M Tris-HCl, pH 8.5, for tryptase M; 0.1 M Tris-HCl, pH 7.8, for plasma and tissue kallikrein; 0.1 M Tris-HCl, pH 7.0 for elastase; 50 mM acetate, pH 6.0, containing 1 mM EDTA and 4 mM cysteine for papain and cathepsin B. After preincubation for 5 min at 25° C., 7.5 μl of 20 mM concentrations of the fluorogenic substrate shown in Table I were added and the residual activity of each protease was measured in a quartz cuvette maintained thermostatically at 25° C.” left out

[3] = biological target: Factor Xa; test: Protease inhibition, fluorogenic MCA substrate: factor Xa; format: biochemical; conditions: substrate Boc-Ile-Glu-Gly-Arg-MCA, pH 8.0, 25° C.
Excerpt: as §1, with “The buffers used were as follows: 0.1 M Tris-HCl, pH 7.5, for trypsin, plasmin and urokinase; 0.1 M Tris-HCl, pH 8.0, for chymase and α-chymotrypsin; 0.1 M Tris-HCl, pH 8.0, containing 10 mM CaCl2 for factor Xa and α-thrombin; 0.1 M Tris-HCl, pH 8.5, for tryptase M; 0.1 M Tris-HCl, pH 7.8, for plasma and tissue kallikrein; 0.1 M Tris-HCl, pH 7.0 for elastase; 50 mM acetate, pH 6.0, containing 1 mM EDTA and 4 mM cysteine for papain and cathepsin B. After preincubation for 5 min at 25° C., 7.5 μl of 20 mM concentrations of the fluorogenic substrate shown in Table I were added and the residual activity of each protease was measured in a quartz cuvette maintained thermostatically at 25° C.” left out

[4] = system: α-Thrombin; test: Protease inhibition, fluorogenic MCA substrate: α-thrombin; format: biochemical
Excerpt: as §1, with “The buffers used were as follows: 0.1 M Tris-HCl, pH 7.5, for trypsin, plasmin and urokinase; 0.1 M Tris-HCl, pH 8.0, for chymase and α-chymotrypsin; 0.1 M Tris-HCl, pH 8.0, containing 10 mM CaCl2 for factor Xa and α-thrombin; 0.1 M Tris-HCl, pH 8.5, for tryptase M; 0.1 M Tris-HCl, pH 7.8, for plasma and tissue kallikrein; 0.1 M Tris-HCl, pH 7.0 for elastase; 50 mM acetate, pH 6.0, containing 1 mM EDTA and 4 mM cysteine for papain and cathepsin B. After preincubation for 5 min at 25° C., 7.5 μl of 20 mM concentrations of the fluorogenic substrate shown in Table I were added and the residual activity of each protease was measured in a quartz cuvette maintained thermostatically at 25° C.” left out

[5] = biological target: T2, Chymase (Rattus norvegicus, UniProt P09650); test: Protease inhibition, fluorogenic MCA substrate: chymase; format: biochemical
T2 construct: tryptase and chymase (both from rat peritoneal mast cells purified as described in Kido et al); from tissue; host or cells: rat peritoneal mast cells
T2 sequence (P09650 21-260): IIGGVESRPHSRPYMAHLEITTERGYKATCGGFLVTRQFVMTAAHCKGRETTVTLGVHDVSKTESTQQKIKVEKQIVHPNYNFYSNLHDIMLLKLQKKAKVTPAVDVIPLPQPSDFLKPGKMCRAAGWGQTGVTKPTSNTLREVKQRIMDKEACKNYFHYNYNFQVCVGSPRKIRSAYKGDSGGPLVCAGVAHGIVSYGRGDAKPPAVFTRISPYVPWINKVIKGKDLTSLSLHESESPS
Excerpt: as §1, with “The buffers used were as follows: 0.1 M Tris-HCl, pH 7.5, for trypsin, plasmin and urokinase; 0.1 M Tris-HCl, pH 8.0, for chymase and α-chymotrypsin; 0.1 M Tris-HCl, pH 8.0, containing 10 mM CaCl2 for factor Xa and α-thrombin; 0.1 M Tris-HCl, pH 8.5, for tryptase M; 0.1 M Tris-HCl, pH 7.8, for plasma and tissue kallikrein; 0.1 M Tris-HCl, pH 7.0 for elastase; 50 mM acetate, pH 6.0, containing 1 mM EDTA and 4 mM cysteine for papain and cathepsin B. After preincubation for 5 min at 25° C., 7.5 μl of 20 mM concentrations of the fluorogenic substrate shown in Table I were added and the residual activity of each protease was measured in a quartz cuvette maintained thermostatically at 25° C.” left out

[6] = biological target: T3, α-chymotrypsin (Bos taurus, UniProt P00766); test: Protease inhibition, fluorogenic MCA substrate: α-chymotrypsin; format: biochemical, bovine
T3 construct: α-chymotrypsin (0.75 U/mg from bovine pancreas); from tissue; host or cells: bovine pancreas
Excerpt: as §1, with “The buffers used were as follows: 0.1 M Tris-HCl, pH 7.5, for trypsin, plasmin and urokinase; 0.1 M Tris-HCl, pH 8.0, for chymase and α-chymotrypsin; 0.1 M Tris-HCl, pH 8.0, containing 10 mM CaCl2 for factor Xa and α-thrombin; 0.1 M Tris-HCl, pH 8.5, for tryptase M; 0.1 M Tris-HCl, pH 7.8, for plasma and tissue kallikrein; 0.1 M Tris-HCl, pH 7.0 for elastase; 50 mM acetate, pH 6.0, containing 1 mM EDTA and 4 mM cysteine for papain and cathepsin B. After preincubation for 5 min at 25° C., 7.5 μl of 20 mM concentrations of the fluorogenic substrate shown in Table I were added and the residual activity of each protease was measured in a quartz cuvette maintained thermostatically at 25° C.” left out

[7] = biological target: T4, Elastase (Sus scrofa, UniProt P00772); test: Protease inhibition, fluorogenic MCA substrate: elastase; format: biochemical, porcine
T4 construct: elastase (33 U/mg from porcine pancreas); from tissue; host or cells: porcine pancreas
Excerpt: as §1, with “The buffers used were as follows: 0.1 M Tris-HCl, pH 7.5, for trypsin, plasmin and urokinase; 0.1 M Tris-HCl, pH 8.0, for chymase and α-chymotrypsin; 0.1 M Tris-HCl, pH 8.0, containing 10 mM CaCl2 for factor Xa and α-thrombin; 0.1 M Tris-HCl, pH 8.5, for tryptase M; 0.1 M Tris-HCl, pH 7.8, for plasma and tissue kallikrein; 0.1 M Tris-HCl, pH 7.0 for elastase; 50 mM acetate, pH 6.0, containing 1 mM EDTA and 4 mM cysteine for papain and cathepsin B. After preincubation for 5 min at 25° C., 7.5 μl of 20 mM concentrations of the fluorogenic substrate shown in Table I were added and the residual activity of each protease was measured in a quartz cuvette maintained thermostatically at 25° C.” left out

T1 sequence (P00761 9-231): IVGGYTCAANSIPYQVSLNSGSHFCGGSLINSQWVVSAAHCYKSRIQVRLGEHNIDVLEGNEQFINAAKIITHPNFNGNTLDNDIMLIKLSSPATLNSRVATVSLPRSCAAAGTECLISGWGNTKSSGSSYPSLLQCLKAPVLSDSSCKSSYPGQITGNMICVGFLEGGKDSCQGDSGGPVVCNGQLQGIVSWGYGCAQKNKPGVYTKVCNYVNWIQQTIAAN
T4 sequence (P00772 27-266): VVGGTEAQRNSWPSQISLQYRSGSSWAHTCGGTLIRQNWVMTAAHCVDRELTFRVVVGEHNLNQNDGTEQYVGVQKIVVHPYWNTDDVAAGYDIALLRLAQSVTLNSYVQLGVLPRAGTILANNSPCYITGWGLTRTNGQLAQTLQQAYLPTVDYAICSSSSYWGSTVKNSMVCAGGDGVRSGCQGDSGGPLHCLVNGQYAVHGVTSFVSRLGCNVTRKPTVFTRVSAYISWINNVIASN

For “A4i: 57 amino acid Kunitz-type serine protease inhibitor encoded by the 168 bp insert of λAPCP168i4”, the “inhibition of pancreatic trypsin (in words)” value [1] was “inhibits”, the Ki ([1]; Trypsin, substrate Boc-Phe-Ser-Arg-MCA, pH 7.5, 25° C., read-out: Ki value) was 2.7 nM and the Ki ([1]; pancreatic trypsin, read-out: Ki) was 3 nM. The “inhibition of tryptase (in words)” value [2] was “strongly inhibits”, the Ki ([2]; tryptase, unit inferred, read-out: dissociation constant Ki) was 0.22 nM and the Ki [3] was 257 nM. The “inhibition of α-thrombin (in words)” value [4] was “did not inhibit”, the Ki ([4]; α-Thrombin, substrate Boc-Val-Pro-Arg-MCA, pH 8.0, 25° C.) was greater than 1000 nM and the “inhibition of chymase (in words)” value [5] was “did not inhibit”. For the same substance, the Ki ([5]; Chymase, substrate Suc-Leu-Leu-Val-Tyr-MCA, pH 8.0, 25° C.) was greater than 1000 nM, the “inhibition of α-chymotrypsin (in words)” value [6] was “inhibits” and the Ki ([6]; α-chymotrypsin) was 8.5 nM. For the same substance, the “inhibition of pancreatic elastase (in words)” value [7] was “did not inhibit”.
